# B1: GFP‐NtUVR8 fusion protein (full‐length Nicotiana tabacum UVR8) (receptor, UniProt A0A1S4AB85 1-441, looked up)
# chain: MAADGSSERAVSRKVLLISAGASHSVALLSANVVCSWGRGEDGQLGLGDAEDRFSPTQVSALDEQQIVSVTCGADHATAYSEALKQVYSWGWGDFGRLGHGNSSDLFTPQPIKALHGICIKQIACGDSHCLAVTMEGEVQSWGRNQNGQLGLGTTEDSLVPQKIEAFKGIPVKMVAAGAEHTAAVTEDGELYGWGWGRYGNLGLGDRNDRLVPVKVSATVGEKMFMVACGWRHTICVSSSGSLYTYGWSKYGQLGHGDFEDHLFPHKVQALHDSFTSQISGGWRHTMALTADGELYGWGWNKFGQVGVGDNVDHCSPVQVKFPHDQKVILISCGWRHTLAVTERQNVFSWGRGTNGQLGHGESVDRNVPRIIEALSVDGSSGQQIGSSTSDPSAAEKSWVSPTERYAVVPNENVPKQTVTSVKGNGNDVNVPENDVKRIRL
# Molecular target: the molecule itself
# Test: SDS-PAGE of non-boiled extracts with Western blot
protein,measurement,value
B1,stoichiometry N,2

# From article PMC9540186 (The Plant Journal, 2022)
